Like-named read-outs stand apart in the source and are kept apart here.
Legend:
CC19 LA = assay: ELISA, coated antigen, mAb titrated
HKU-1 spike (2P) = HKU-1 spike (2P) (human coronavirus HKU1); assay: ELISA, coated spike, mAb titrated
S2hlx-Ex8-Trx F1148A = assay: ELISA; antigen coated, mAb titrated
S2hlx-4 [1] = assay: SPR, mAb captured, antigen as analyte
S2hlx-15 [2] = molecular target: T1, S2hlx-15; assay: ELISA, coated antigen, mAb titrated
T1 chain: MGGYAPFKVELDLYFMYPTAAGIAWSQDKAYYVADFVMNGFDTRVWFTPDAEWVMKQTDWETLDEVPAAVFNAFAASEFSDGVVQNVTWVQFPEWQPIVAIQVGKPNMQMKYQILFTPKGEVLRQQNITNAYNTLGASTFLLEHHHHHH

S2hlx-Ex8-Trx = molecular target: T2, S2hlx-Ex8-Trx; assay: SPR, mAb captured, scaffold as analyte
T2 chain: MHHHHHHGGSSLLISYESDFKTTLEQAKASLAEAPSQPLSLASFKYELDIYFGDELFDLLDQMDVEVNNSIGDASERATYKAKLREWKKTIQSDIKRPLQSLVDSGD

S2hlx-Ex25 = molecular target: T3, S2hlx-Ex25; assay: SPR, mAb captured, scaffold as analyte
T3 chain: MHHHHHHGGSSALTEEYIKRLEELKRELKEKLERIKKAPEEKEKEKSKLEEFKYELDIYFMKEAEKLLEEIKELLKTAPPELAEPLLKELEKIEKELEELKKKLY

S2hlx-Ex54 = molecular target: T4, S2hlx-Ex54; assay: SPR, mAb captured, scaffold as analyte
T4 chain: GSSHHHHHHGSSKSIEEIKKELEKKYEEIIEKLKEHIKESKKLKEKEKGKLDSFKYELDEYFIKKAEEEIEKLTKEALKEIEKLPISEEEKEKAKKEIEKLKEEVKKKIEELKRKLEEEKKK

S2hlx-15 [3] = molecular target: T1, S2hlx-15; assay: SPR, mAb captured, scaffold as analyte
S2hlx-Ex34 = molecular target: T5, S2hlx-Ex34; assay: SPR, mAb captured, scaffold as analyte
T5 chain: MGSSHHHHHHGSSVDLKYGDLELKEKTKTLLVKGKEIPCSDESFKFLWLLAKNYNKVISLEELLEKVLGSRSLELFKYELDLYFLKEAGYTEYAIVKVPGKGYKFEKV

S2hlx-Ex37 = molecular target: T6, S2hlx-Ex37; assay: SPR, mAb captured, scaffold as analyte
T6 chain: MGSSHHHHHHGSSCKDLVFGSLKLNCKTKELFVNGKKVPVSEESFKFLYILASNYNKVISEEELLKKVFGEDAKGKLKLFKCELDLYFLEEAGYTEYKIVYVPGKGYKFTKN

S2hlx-Ex20 = molecular target: T7, S2hlx-Ex20; assay: SPR, mAb captured, antigen as analyte
T7 chain: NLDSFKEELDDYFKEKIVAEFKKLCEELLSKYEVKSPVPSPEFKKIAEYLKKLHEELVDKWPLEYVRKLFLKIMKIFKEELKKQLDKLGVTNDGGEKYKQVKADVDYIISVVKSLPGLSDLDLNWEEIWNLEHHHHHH

S2hlx-Ex15 = molecular target: T8, S2hlx-Ex15; assay: SPR, mAb captured, antigen as analyte
T8 chain: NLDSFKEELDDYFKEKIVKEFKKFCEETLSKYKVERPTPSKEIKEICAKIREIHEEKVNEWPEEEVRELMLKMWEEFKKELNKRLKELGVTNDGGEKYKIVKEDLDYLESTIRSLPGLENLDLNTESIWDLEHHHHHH

S2hlx-Ex17 = molecular target: T9, S2hlx-Ex17; assay: SPR, mAb captured, antigen as analyte
T9 chain: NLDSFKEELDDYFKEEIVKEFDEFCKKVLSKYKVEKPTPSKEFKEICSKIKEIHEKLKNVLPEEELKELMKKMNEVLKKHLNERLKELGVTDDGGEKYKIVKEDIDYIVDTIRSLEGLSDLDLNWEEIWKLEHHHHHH

S2hlx-Ex15 F1148A = molecular target: T10, S2hlx-Ex15 F1148A; assay: ELISA; antigen coated, mAb titrated
T10 epitope scaffold: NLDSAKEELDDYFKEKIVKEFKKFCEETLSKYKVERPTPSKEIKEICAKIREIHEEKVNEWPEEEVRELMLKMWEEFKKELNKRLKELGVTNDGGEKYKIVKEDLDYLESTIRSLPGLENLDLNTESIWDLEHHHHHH

S2hlx-4 [4] = assay: SPR, mAb captured, antigen as analyte; remark: listed apart in the source
S2hlx-14 = assay: SPR, mAb captured, antigen as analyte
S2hlx-1 = molecular target: T11, S2hlx-1; assay: SPR, mAb captured, antigen as analyte
T11 epitope scaffold: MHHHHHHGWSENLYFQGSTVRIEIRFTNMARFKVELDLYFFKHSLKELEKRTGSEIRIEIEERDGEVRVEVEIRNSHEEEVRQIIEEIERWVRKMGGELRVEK

S2hlx-13 = molecular target: T12, S2hlx-13; assay: SPR, mAb captured, antigen as analyte
T12 epitope scaffold: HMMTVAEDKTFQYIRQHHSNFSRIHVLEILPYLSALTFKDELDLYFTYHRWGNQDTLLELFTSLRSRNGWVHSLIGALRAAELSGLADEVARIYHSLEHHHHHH

Chain of S2hlx-4 (chain, as listed by the source): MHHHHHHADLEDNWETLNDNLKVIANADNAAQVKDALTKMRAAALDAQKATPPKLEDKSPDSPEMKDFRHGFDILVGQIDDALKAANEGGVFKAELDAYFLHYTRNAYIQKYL

B1: S2P6 mAb (antibody, V domains shown)
VH: EVQLVQSGAEVKKPGASVKVSCKASGYTFTSQYMHWVRQAPGQGLEWIGIINPSGVHTSYAQKFQGRVTLTRDTSTSTLYMELSSLRSEDTAVYYCARGSPKGAFDYWGQGTLVTVSS
VL: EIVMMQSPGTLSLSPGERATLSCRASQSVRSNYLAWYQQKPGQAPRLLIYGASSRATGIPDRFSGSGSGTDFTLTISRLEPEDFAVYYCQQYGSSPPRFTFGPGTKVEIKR
- EC50 (read off the curve) (CC19 LA): ~0.02 µg/mL
- EC50 (read off the curve) (HKU-1 spike (2P)): ~0.3 µg/mL
- EC50 (read off the curve) (S2hlx-Ex8-Trx F1148A): ~0.04 µg/mL
- Kd (S2hlx-4 [1]): 47.7 nM
- EC50 (read off the curve) (S2hlx-15 [2]): ~0.1 µg/mL
- Kd (S2hlx-Ex8-Trx): 330 nM
- Kd (S2hlx-Ex25): 612 nM
- Kd (S2hlx-Ex54): 45 nM
- Kd (S2hlx-15 [3]): 0.7 nM
- Kd (S2hlx-Ex34): 82 nM
- Kd (S2hlx-Ex37): 664 nM
- Kd (S2hlx-Ex20): 10.7 nM
- Kd (S2hlx-Ex15): 4 nM
- Kd (S2hlx-Ex17): 29.6 nM
- EC50 (read off the curve) (S2hlx-Ex15 F1148A): ~0.07 µg/mL
- Kd (S2hlx-4 [4]): 47.7 nM
- Kd (S2hlx-14): 30 nM
- Kd (S2hlx-1): 52.8 nM
- Kd (S2hlx-13): 83 nM
